biological target: T1, SEZ6 ECD (Homo sapiens, UniProt Q53EL9); experiment: Fine epitope mapping (phage display peptide library or yeast-displayed SEZ6 ECD mutants); type: binding; conditions: epitope conformational (discontinuous) or linear
T1 construct: SEZ6 extracellular domain (amino acids 1-904); expressed in transfected cells; host or cells: yeast (surface display, Cochran et al. protocol)
Description: Epitopes were classified either as conformational (i.e. discontinuous) or linear. Yeast displaying the SEZ6 ECD construct was heat treated for 30 minutes at 80° C. in order to denature the antigen, washed twice in ice-cold PBSA and then subjected to the same staining protocol and flow cytometry analysis as described above. Antibodies that bound to both the denatured and native yeast were classified as binding to a linear epitope, whereas antibodies that bound native yeast but not denatured yeast were classified as conformationally specific.
Fine epitope mapping was further performed on selected antibodies to determine the specific amino acids to which they bound. Antibodies that bound to a linear epitope were mapped using the Ph.D.-12 phage display peptide library kit (New England Biolabs E8110S). The antibody selected for epitope mapping was coated onto a Nunc MaxiSorp tube (Nunc) at 50 μg/mL in 3 mL 0.1 M sodium bicarbonate solution, pH 8 and incubated overnight. The tube was blocked with 3% BSA solution in bicarbonate solution. Then, 10^11 input phage in PBS+0.1% Tween-20 was allowed to bind, followed by ten consecutive washes with 0.1% Tween-20 to wash away non-binding phage. Remaining phage were eluted with 1 mL 0.2 M glycine for 10 minutes at room temperature with gentle agitation, followed by neutralization with 150 μL 1 M Tris-HCl pH 9. Eluted phage were amplified and panned again with 10^11 input phage, using 0.5% Tween-20 during the wash steps to increase selection stringency. DNA from 24 plaques of the eluted phage from the second round was isolated using the Qiaprep M13 Spin kit (Qiagen) and sequenced. Binding of clonal phage was confirmed using an ELISA assay, where the mapped antibody or a control antibody was coated onto an ELISA plate, blocked, and exposed to each clone phage. Phage binding was detected using horseradish peroxidase conjugated anti-M13 antibody (GE Healthcare), and the 1-Step Turbo TMB ELISA solution (Pierce). Phage peptide sequences from specifically binding phage were aligned using Vector NTI (Life Technologies) against the antigen ECD peptide sequence to determine the epitope of binding.
Selected antibodies that bound to a discontinuous epitope were mapped using the technique described by Chao et al. (2007). Libraries of SEZ6 ECD mutants were generated with error prone PCR using nucleotide analogues 8-oxo-2′deoxyguanosine-5′-triphosphate and 2′-deoxy-p-nucleoside-5′triphosphate (both from TriLink Bio) for a target mutagenesis rate of one amino acid mutation per clone. These were transformed into a yeast display format. Using the technique described above for domain-level mapping, the library was stained for c-myc and antibody binding at 50 nM. […] These clones were re-grown, and subjected to another round of FACS sorting for loss of binding to the target antibody. Using the Zymoprep Yeast Plasmid Miniprep kit (Zymo Research), individual ECD clones were isolated and sequenced. Where necessary, mutations were reformatted as single-mutant ECD clones using the Quikchange site directed mutagenesis kit (Agilent).
Individual ECD clones were next screened to determine whether loss of binding was due to a mutation in the epitope, or a mutation that caused misfolding. Mutations that involved cysteine, proline, and stop codons were automatically discarded due to the high likelihood of a misfolding mutation. Remaining ECD clones were then screened for binding to a non-competing, conformationally specific antibody. ECD clones that lost binding to non-competing, conformationally specific antibodies were concluded to contain misfolding mutations, whereas ECD clones that retained equivalent binding as wild type SEZ6 ECD were concluded to be properly folded. Mutations in the ECD clones in the latter group were concluded to be in the epitope. […]

T1 sequence (Q53EL9 20-923): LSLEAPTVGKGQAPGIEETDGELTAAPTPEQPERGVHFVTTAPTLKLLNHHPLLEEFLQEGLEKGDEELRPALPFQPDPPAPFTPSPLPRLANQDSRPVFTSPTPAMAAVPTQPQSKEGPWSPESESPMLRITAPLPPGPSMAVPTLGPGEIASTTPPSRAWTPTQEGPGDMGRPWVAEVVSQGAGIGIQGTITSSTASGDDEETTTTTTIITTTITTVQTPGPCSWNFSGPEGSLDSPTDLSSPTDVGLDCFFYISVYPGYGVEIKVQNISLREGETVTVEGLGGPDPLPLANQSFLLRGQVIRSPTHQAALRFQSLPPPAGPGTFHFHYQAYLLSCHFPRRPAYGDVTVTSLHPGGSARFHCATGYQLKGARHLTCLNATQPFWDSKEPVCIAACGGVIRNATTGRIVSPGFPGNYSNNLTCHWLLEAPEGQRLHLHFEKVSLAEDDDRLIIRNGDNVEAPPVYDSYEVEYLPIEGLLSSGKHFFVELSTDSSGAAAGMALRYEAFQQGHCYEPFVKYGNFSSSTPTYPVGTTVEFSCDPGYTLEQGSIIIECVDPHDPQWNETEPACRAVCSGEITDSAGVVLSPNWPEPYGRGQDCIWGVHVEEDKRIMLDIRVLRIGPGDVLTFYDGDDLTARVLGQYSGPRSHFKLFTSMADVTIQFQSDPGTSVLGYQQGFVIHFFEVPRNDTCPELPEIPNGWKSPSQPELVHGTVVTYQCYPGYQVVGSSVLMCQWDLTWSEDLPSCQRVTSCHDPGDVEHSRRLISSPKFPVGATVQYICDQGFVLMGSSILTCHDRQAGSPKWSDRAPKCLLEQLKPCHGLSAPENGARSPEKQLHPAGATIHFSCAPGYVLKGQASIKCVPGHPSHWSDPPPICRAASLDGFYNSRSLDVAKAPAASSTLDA

Molecule	Discontinuous
SC17.4: murine anti-SEZ6 antibody (antibody, V domains shown, Murine SC17.4 VH; Murine SC17.4 VL, murine anti-SEZ6 antibody) VH: QIQLVQSGPELKKPGETVKISCKASGYTFTDYSMHWVKQAPGKGLKWLGWINTETGEPTYSEDFKGRFAFSLETSASTAYLQINNLKNEDTATYFCVKNKGWFAYWGQGTLVTVSA VL: DIKMTQSPSSMYASLGERVTITCKASQDINSYLTWFQQKPGKSPKTLIYRANRLIDGVPSRFSGSGSGQDYSLTISSLDYEDMGIYYCLQYDDFPWTFGGGTKLEIK	No
SC17.102: murine anti-SEZ6 antibody (antibody, V domains shown, Murine SC17.102 VH; Murine SC17.102 VL, murine anti-SEZ6 antibody) VH: EVQLQQSGPELMKPGASVKMSCKASGDTFTDYNIHWVKQNQGKSLEWIGEVNPNIGGIGYNQKFKGKATLTVDKSSSTAYMELRSLTSEDSAVYYCAMGRWYFDVWGAGTTVTVSS VL: QIVLTQSPAIMSASPGEKVTMTCSASSSVSYMHWYQQKSGTSPKRWIYDTSKLASGVPPRFSGRGSGTSYSLTISSMEAEDAATYYCQHWSSNPPTFGAGTKLEMK	Yes
SC17.166: murine anti-SEZ6 antibody (antibody, V domains shown, Murine SC17.166 VH; Murine SC17.166 VL, murine anti-SEZ6 antibody) VH: EVQLQQSGPELMKPGASVKMSCKASGYIFTDYNMHWVKQNQGKSLEWIGEVNPNTGGIGYNQKFKGKATLTVDKSSSTAYMDLRSLTSEDSAVYYCARDGNYCFDYWGQGTTLTVSS VL: QIVLTQSPAIMSASPGEKVTMTCSASSSISYMHWYQQKSGTSPKRWIYDTSKLASGVPARFSGSGSGTSYSLTISNMEAEDAATYYCQQWSSTPPTFGGGTKLEIK	Yes

More lines, now with the values ahead:

Discontinuous	Molecule
Yes	SC17.156: murine anti-SEZ6 antibody (antibody, V domains shown, Murine SC17.156 VH; Murine SC17.156 VL, murine anti-SEZ6 antibody) VH: QVTLKESGPGILQPSQTLSLTCSFSGFSLSTSGMGVSWIRKTSGKGLEWLAHIFWDDDKWYNPSLKSRLTISKATSSNQVFLILTSVDTADTATYYCATFYGLYFAYWGQGTTLTVSS VL: DVVMTQSPLSLPVSLGDQASISCRSSQSIVHSNGNTYLEWYLQKPGQSPKLLIYKVSNRFSGVPDRFSGSGSGTDFTLKISRVEAEDLGVYYCFQGSHVPPTFGGGTKLEIK
Yes	SC17.191: murine anti-SEZ6 antibody (antibody, V domains shown, Murine SC17.191 VH; Murine SC17.191 VL, murine anti-SEZ6 antibody) VH: EVQLQQSGPELMKPGASVKMSCKASGYTFTDYNMHWVKQNQGKSLEWIGEINPNTGGTGYNQKFKDKATLTVDKSSSTAYMELRSLTSEDSAVYYCARIPSLRRYYFDYWGQGTTLTVSS VL: QIVLTQSPAIMSASPGEKVTMTCSASSSVSYMHWYQQKSGTSPKRWIYDTSKLASGVPARFTGSGSGTSYSLTISSMEAEDAATYYCQQWSSSPPTFGAGTKLELK
Yes	SC17.121: murine anti-SEZ6 antibody (antibody, V domains shown, Murine SC17.121 VH; Murine SC17.121 VL, murine anti-SEZ6 antibody) VH: EVQLQQSGPELMKPGASVKMSCKASGYTFTDHNIHWVKQHQGKSLEWIGEINPNTGGTGYNQKFQGKATMTVDKSSSTAYMELRSLTSEDSAVYYCVRGLYFFDYWGQGTTLTVSS VL: QIVLTQSPAIMSASPGEKVTMTCSASSSVSYMHWYQQKSGTSPKRWIYDTSKLASGVPARFSGSGSGTSYSLTISSMETEDAATYYCQQWSNTPPTFGSVTKLEIK

Reference: patent publication US9993566B2, “SEZ6 modulators and methods of use” (AbbVie Stemcentrx LLC, priority 2013, dated 2018)
